In the DeepSol protein solubility set:

Test: soluble on expression in E. coli; label from the status in PepcDB or PDB records
For “MTIAKDYRTIYRNQIKKQIRLNQEHLQSLTHLGSQINFEVDPPKLPDPDPARKVFFFDIDNTLYRKSTKVQLLMQQSLSNFFKYELGFDDDEAERLIESYYQEYGLSVKGLIKNKQIDDVLQYNTFIDDSLPLQDYLKPDWKLRELLINLKKKKLGKFDKLWLFTNSYKNHAIRCVKILGIADLFDGITYCHYDRPIEEEFICKPDPKFFETAKLQSGLSSFANAWFIDDNESNVRSALSMGMGHVIHLIEDYQYESENIVTKDHKNKQQFSILKDILEIPLIMDVEVYRPSSIAIKEMEELEEEGEAVNWSNQQINVQSS”, the “soluble on expression in E. coli” value was “soluble”.
With “MTIAQEPTALNFECETGNYHTFCPISCVAWLYQKIEDSFFLVIGTKTCGYFLQNAMGVMIFAEPRYAMAELEEGDISAQLNDYAELKRLCEQIKRDRNPSVIVWIGTCTTEIIKMDLEGLAPKLEGEIGIPIVVARANGLDYAFTQGEDTVLAAMAHRCPDKAPVAELEHHHHHH” the “soluble on expression in E. coli” value was “not soluble”.
With “MTIDDSNRLLMDVDQFDFLDDGTAQLSNNKTDEEEQLYKRDPVSGAILVPMTVNDQPIEKNGDKMPLKFKLGPLSYQNMAFITAKDKYKLYPVRIPRLDTSKEFSAYVSGLFEIYRDLGDDRVFNVPTIGVVNSNFAKEHNATVNLAMEAILNELEVFIGRVKDQDGRVNRFYELEESLTVLNCLRTMYFILDGQDVEENRSEFIESLLNWINRSDGEPDEEYIEQVFSVKDSTAGKKVFETQYFWKLLNQLVLRGLLSQAIGCIERSDLLPYLSDTCAVSFDAVSDSIELLKQYPKDSSSTFREWKNLVLKLSQAFGSSATDISGELRDYIEDFLLVIGGNQRKILQYSRTWYESFCGFLLYYIPSLELSAEYLQMSLEANVVDITNDWEQPCVDIISGKIHSILPVMESLDSCTAAFTAMICEAKGLIENIFEGEKNSDDYSNEDNEMLEDLFSYRNGMASYMLNSFAFELCSLGDKELWPVAIGLIALSATGTRSAKKMVIAELLPHYPFVTNDDIEWMLSICVEWRLPEIAKEIYTTLGNQMLSAHNIIESIANFSRAGKYELVKS” the “soluble on expression in E. coli” value was “soluble”.
In the case of “MTIKEMPQPKTFGELKNLPLLNTDKPVQALMKIADELGEIFKFEAPGRVTRYLSSQRLIKEACDESRFDKNLSQALKFVRDFAGDGLFTSWTHEKNWKKAHNILLPSFSQQAMKGYHAMMVDIAVQLVQKWERLNADEHIEVPEDMTRLTLDTIGLCGFNYRFNSFYRDQPHPFITSMVRALDEAMNKLQRANPDDPAYDENKRQFQEDIKVMNDLVDKIIADRKASGEQSDDLLTHMLNGKDPETGEPLDDENIRYQIITFLIAGHETTSGLLSFALYFLVKNPHVLQKAAEEAARVLVDPVPSYKQVKQLKYVGMVLNEALRLWPTAPAFSLYAKEDTVLGGEYPLEKGDELMVLIPQLHRDKTIWGDDVEEFRPERFENPSAIPQHAFKPFGNGQRACPGQQFALHEATLVLGMMLKHFDFEDHTNYELDIKETLTLKPEGFVVKAKSKKIPLGGIPSPSTEQSAKKVRKKAENAHNTP”, the “soluble on expression in E. coli” value is reported as “soluble”.
For “MTIKIALLGFGTVAKGIPYLLKENQHKLLSLEGEDIVIDKVLVRDNESRQRFINQGFTYNFVTEINTILQDSQIDIVVELMGGIEPAKTYLSQALGFGKHIVTANKDLIALHGKELMDLADARGLALFYEGAVAGGIPILRTLSHSFASDKMTRLLGILNGTSNFMLTKMFEEGW”, the “soluble on expression in E. coli” value was “not soluble”.
With “MTIKKYKTALSGMFPEEIQSFCGLKEKFRAQQIFHWIASGVNSFDEMTNLSFDMRSKLKNDFSLFSTKIKEALKDKDGTIKLAVELYDGSVIETVLLTDKAKRKTACVSCQAGCPMKCAFCKTGQIGFLRNLSASEIVEQFLHLEREAGSLDNIVFMGMGEPMLNLPEIDKAINILAHPKGRNLSKRRITISTSGLCKGIYEMADKGPEVRLAVSLTTADETLRSELMPITKTNSLDELKQAIKYFNSKSNKRVTLELALMKGLNTDKKAAQEVIEFAKGLECFINLIPWNPVEGLNFKTPSETEVRTFETYLKKAGLNISTRQKRGQSIGGACGQLGSTAARSNRF” the “soluble on expression in E. coli” value was “not soluble”.
For “MTIYEQHFIFSDRIVPIRVRENKYARRLILRIDARGREICVTTPPAINLYSIQGFIAKHQSWIEARLARVQIAHANSYLKEGTKIPLLGIPHTIQRKEGRGITEIVAGDVRQEPKIVVYGQLEYLPRRIADVLKKQAALIITPLVKCYARKVERKVKSICYKDTKSRWGSCSIHGNLSFSWRLVMAPQEVIEYVVAHEVAHLIEMNHGPKFWALCEKLCPKSEAYRTWLKENGHMLQAVNFHSYRLEI”, the “soluble on expression in E. coli” value was “not soluble”.
With “MTIYHFVGIKGSGMSALAQILHDKGFQVQGSDVDKYFFTQKALEEKQIPIMTFSADNIKEGLTIIAGNAFPDTHEEIERANELNLPVIRYHKFLGQLIDGYTSIAITGSHGKTSTTGLLSHVVGAIRPTSYLIGDGTGSGTKDAKYFALEACEYQRHFLAYKPTYAIMTNIDWDHPDYFKSVDDVFNAFETLGKQVKKAVFALGDDVELRKLSLDVPIIYFGFGSENEFQAKNVKKETTGTKFDVYHRDEFLASFEIPAYGDHNVLNALSVIALCDYEGLPVDEVKKELKTFEGVKRRFSITEKGNQVLVDDYAHHPSEIRATVNAARQKYPNKKIVAVFQPHTFTRTRTFLQGFADSLNLADEVYLCDIFGSAREKTGNLTIADLAHKTKGNHIIKEEHTEELLQYPEAVILFMGAGDVQKFQAAYEKVLDNEIVANEVLKKSAIN” the “soluble on expression in E. coli” value was “not soluble”.
For “MTKITVVGAGSWGTALAMVLADNGHDVRIWGNRSELMDEINTKHENSRYLPGITLPSTIVAYSSLEEALVDVNVVLIVVPTKAYREVLQDMKKYVAGPTTWIHASKGIEPGTSKRISEVIEEEIPEDLIKDVVVLSGPSHAEEVGLRQATTVTSAAKRMEAAEEVQDLFMNSYFRVYTNPDIVGVELGGALKNIIALAAGITDGLGLGDNAKAALMTRGLTEIARLGRKMGGNPLTFAGLTGMGDLIVTCTSVHSRNWRAGNMLGKGHSLEEVLESMGMVVEGVRTTKAAHELAEKMEVEMPITAALYDVLFNGNNVKDAVGSLMGRVRKHEVEAIPDLL”, the “soluble on expression in E. coli” value was “not soluble”.
In the case of “MTKKALSAVILAAGKGTRMYSDLPKVLHTIAGKPMVKHVIDTAHQLGSENIHLIYGHGGDLMRTHLANEQVNWVLQTEQLGTAHAVQQAAPFFKDNENIVVLYGDAPLITKETLEKLIEAKPENGIALLTVNLDNPTGYGRIIRENGNVVAIVEQKDANAEQLNIKEVNTGVMVSDGASFKKWLARVGNNNAQGEYYLTDLIALANQDNCQVVAVQATDVMEVEGANNRLQLAALERYFQNKQASKLLLEGVMIYDPARFDLRGTLEHGKDVEIDVNVIIEGNVKLGDRVKIGTGCVLKNVVIGNDVEIKPYSVLEDSIVGEKAAIGPFSRLRPGAELAAETHVGNFVEIKKSTVGKGSKVNHLTYVGDSEIGSNCNIGAGVITCNYDGANKFKTIIGDDVFVGSDTQLVAPVKVANGATIGAGTTITRDVGENELVITRVAQRHIQGWQRPIKKK”, the “soluble on expression in E. coli” value is reported as “soluble”.
For “MTKKVVVHQIVGHRFLGVNEQGDKVMIDGDQPSTGPRPMELLLMALGACTAYDVVDIMRKKKQPLARYRVEVEGERAETHPRRYTRITVTHIASGPGVTLEALERAVHLSHTKYCSVSATLNAEITTRVVLEPWEGEEGEG”, the “soluble on expression in E. coli” value was “soluble”.
With “MTKNKSVARDERYYKAYLESRTISRRGLFRGLLKGVQPSTTTAPSDITAPPPLRPPYAIDEPHFQQSCTGCGVCVAACEENLIVMVNQRPALNFSTPYFSTPYCSRCQACSTACQTGALSSAEFHIAARPSVKNICQNTYIYCDSCADYCEKQALIWQANQPPTLVTELCDGCGECVFRCPARILEMQI” the “soluble on expression in E. coli” value was “not soluble”.
With “MTKTRRRGAELENAIYQAARDILNQDGLEQLTFANVAEQAGTSKPVIYRRWRSPLELAIAAIQDQIITENHGQLDEVSLTGQTLSEDLFQVLKRFTVSINTFNQALVITWFHHLDQQANPEVKDLLNAVKKIDAHAIERVCQRAQQRGELRTGTLSCDLQLMPFDWLRYRAFANEPITDATLHLLVDDLLVPAYQHALG” the “soluble on expression in E. coli” value was “not soluble”.
With “MTKTTILLLCGGGSSEHEISLVSANYIQQQLELTPEFHVIRVEMKKEGWFSEQGALVYLDTNSATLNSDKASYPIDFVVPCIHGFPGETGDIQSMLELAGIPYLGCGPEASANSFNKITSKLWYDALDIPNTPYLFLTQNTPSSIDKAKQAFGHWGSIFVKAARQGSSVGCYKVTTEDQIAPAIEAAFGFSEQVLVEQAVKPRELEVSAYEMNGKLYISKPGEVIAPEGTFYSYEEKYSANSHARTVLEAENLTEKHKELIQTYAERVFIHMKLRHLSRIDFFLTQEGQIYLNEVNTFPGMTPISMFPKMLEHNGHRFSEFLVQCVTNTLVNAK” the “soluble on expression in E. coli” value was “not soluble”.
